B1: Discoidin domain-containing receptor 2 (Homo sapiens), Q16832 (parent)
chain: MILIPRMLLVLFLLLPILSSAKAQVNPAICRYPLGMSGGQIPDEDITASSQWSESTAAKYGRLDSEEGDGAWCPEIPVEPDDLKEFLQIDLHTLHFITLVGTQGRHAGGHGIEFAPMYKINYSRDGTRWISWRNRHGKQVLDGNSNPYDIFLKDLEPPIVARFVRFIPVTDHSMNVCMRVELYGCVWLDGLVSYNAPAGQQFVLPGGSIIYLNDSVYDGAVGYSMTEGLGQLTDGVSGLDDFTQTHEYHVWPGYDYVGWRNESATNGYIEIMFEFDRIRNFTTMKVHCNNMFAKGVKIFKEVQCYFRSEASEWEPNAISFPLVLDDVNPSARFVTVPLHHRMASAIKCQYHFADTWMMFSEITFQSDAAMYNNSEALPTSPMAPTTYDPMLKVDDSNTRILIGCLVAIIFILLAIIVIILWRQFWQKMLEKASRRMLDDEMTVSLSLPSDSSMFNNNRSSSPSEQGSNSTYDRIFPLRPDYQEPSRLIRKLPEFAPGEEESGCSGVVKPVQPSGPEGVPHYAEADIVNLQGVTGGNTYSVPAVTMDLLSGKDVAVEEFPRKLLTFKEKLGEGQFGEVHLCEVEGMEKFKDKDFALDVSANQPVLVAVKMLRADANKNARNDFLKEIKIMSRLKDPNIIHLLAVCITDDPLCMITEYMENGDLNQFLSRHEPPNSSSSDVRTVSYTNLKFMATQIASGMKYLSSLNFVHRDLATRNCLVGKNYTIKIADFGMSRNLYSGDYYRIQGRAVLPIRWMSWESILLGKFTTASDVWAFGVTLWETFTFCQEQPYSQLSDEQVIENTGEFFRDQGRQTYLPQPAICPDSVYKLMLSCWRRDTKNRPSFQEIHLLLLQQGDE

Variants of: B1
Conditions: with coba2_human COL11A2, P13942
Sequence of coba2_human COL11A2, P13942 (P13942 whole entry): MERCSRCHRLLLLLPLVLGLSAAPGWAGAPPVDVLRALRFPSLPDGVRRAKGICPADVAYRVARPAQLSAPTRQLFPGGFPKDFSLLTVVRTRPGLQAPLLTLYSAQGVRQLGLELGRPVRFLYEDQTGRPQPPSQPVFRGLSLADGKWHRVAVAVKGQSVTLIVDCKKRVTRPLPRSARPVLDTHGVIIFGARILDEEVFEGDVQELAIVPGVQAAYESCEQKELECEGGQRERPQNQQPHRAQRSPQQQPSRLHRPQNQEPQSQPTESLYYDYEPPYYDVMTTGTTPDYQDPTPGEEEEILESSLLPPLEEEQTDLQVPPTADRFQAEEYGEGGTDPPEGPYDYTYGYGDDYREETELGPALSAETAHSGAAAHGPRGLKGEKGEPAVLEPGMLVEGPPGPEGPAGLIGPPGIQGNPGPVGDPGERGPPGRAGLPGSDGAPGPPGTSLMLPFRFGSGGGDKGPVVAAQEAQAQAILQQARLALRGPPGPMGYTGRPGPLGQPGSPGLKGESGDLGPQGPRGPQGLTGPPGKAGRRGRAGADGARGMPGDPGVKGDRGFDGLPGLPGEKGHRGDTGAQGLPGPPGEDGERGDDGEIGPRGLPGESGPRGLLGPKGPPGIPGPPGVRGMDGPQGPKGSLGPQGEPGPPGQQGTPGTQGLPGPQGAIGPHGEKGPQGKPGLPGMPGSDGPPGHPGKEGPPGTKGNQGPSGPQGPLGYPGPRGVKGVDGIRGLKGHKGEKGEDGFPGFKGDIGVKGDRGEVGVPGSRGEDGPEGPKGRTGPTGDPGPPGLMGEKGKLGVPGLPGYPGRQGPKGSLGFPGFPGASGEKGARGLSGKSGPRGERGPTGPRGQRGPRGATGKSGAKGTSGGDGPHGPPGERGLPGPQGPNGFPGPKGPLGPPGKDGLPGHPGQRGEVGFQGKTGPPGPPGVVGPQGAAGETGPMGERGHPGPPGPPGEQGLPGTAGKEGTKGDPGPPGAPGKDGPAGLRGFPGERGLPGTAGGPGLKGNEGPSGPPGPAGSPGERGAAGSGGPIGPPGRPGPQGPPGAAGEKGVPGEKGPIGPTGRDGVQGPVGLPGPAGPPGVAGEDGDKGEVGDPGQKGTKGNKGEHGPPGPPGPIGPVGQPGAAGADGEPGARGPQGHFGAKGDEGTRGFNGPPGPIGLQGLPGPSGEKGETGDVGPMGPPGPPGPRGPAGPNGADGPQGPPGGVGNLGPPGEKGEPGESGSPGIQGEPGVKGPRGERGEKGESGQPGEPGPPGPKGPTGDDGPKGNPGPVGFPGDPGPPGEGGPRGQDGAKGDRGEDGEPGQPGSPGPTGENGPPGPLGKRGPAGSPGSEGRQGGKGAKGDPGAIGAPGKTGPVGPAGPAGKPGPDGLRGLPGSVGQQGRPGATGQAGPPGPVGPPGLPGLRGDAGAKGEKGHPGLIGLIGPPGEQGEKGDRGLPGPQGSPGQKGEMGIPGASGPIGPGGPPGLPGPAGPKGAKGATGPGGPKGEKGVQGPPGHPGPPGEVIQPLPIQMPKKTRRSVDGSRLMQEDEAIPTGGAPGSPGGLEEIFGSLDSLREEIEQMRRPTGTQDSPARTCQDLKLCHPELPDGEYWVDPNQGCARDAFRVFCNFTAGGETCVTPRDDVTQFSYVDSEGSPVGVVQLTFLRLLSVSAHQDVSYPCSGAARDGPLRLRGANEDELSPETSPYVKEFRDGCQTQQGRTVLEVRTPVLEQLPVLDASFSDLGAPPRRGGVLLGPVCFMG

effect of a mutation on the interaction	Variant
disrupting interaction	R105A
disrupting interaction	E113A
disrupting interaction	W52A

— IntAct's records for PubMed 17703188
